Drawing on publication PMC4230323 (Biochemistry, 2014), this text covers Km for 1 molecule.

Read-outs that look alike come from different tables or passages of the source.

Data set [1] is classed as biochemical. The settings on record: read-out: Km(SPS); Src peptide substrate.
Data set [2] is classed as biochemical. The settings on record: read-out: Km(ATP); 100 μM SPS.

B1: Lyn^SH2eng: Lyn Q509E/Q510E/Q511I three-domain construct with enhanced SH2 engagement (protein)
chain: QGDIVVALYPYDGIHPDDLSFKKGEKMKVLEEHGEWWKAKSLLTKKEGFIPSNYVAKLNTLETEEWFFKDITRKDAERQLLAPGNSAGAFLIRESETLKGSFSLSVRDFDPVHGDVIKHYKIRSLDNGGYYISPRITFPCISDMIKHYQKQADGLCRRLEKACISPKPQKPWDKDAWEIPRESIKLVKRLGAGQFGEVWMGYYNNSTKVAVKTLKPGTMSVQAFLEEANLMKTLQHDKLVRLYAVVTREEPIYIITEYMAKGSLLDFLKSDEGGKVLLPKLIDFSAQIAEGMAYIERKNYIHRDLRAANVLVSESLMCKIADFGLARVIEDNEYTAREGAKFPIKWTAPEAINFGCFTIKSDVWSFGILLYEIVTYGKIPYPGRTNADVMTALSQGYRMPRVENCPDELYDIMKMCWKEKAEERPTFDYLQSVLDDFYTATEGQYEEIP
modifications: left off: His tag, N-terminal, kept
Turning to B1, the Km in data set [1] was 60 ± 10 µM; in data set [2], 54 ± 5 µM.
